Assay results published in the supplement of paper PMC9170038.

Tests used:
[1] = tested on: MS2 coat protein; test: apparent KD of MS2 coat protein, switch ON state; designed switch direction (-1 OFF switch, 1 ON switch): -1; higher = weaker reporter binding; details: FMN input: 0 or 200 uM; Eterna round: R93 (includes R88 designs)
Method in brief: (§1)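 Designed RNA switches were made by on-chip transcription from Illumina sequencing clusters and then titrated with SNAP-549-labelled MS2 coat protein. Twofold steps ran from 0.7 or 1.5 nM to 3 µM, each lasting 0.8–1.5 h early and 10–20 min late, in 100 mM Tris-HCl pH 7.5, 80 mM KCl, 4 mM MgCl2, without or with constant ligand. Apparent KD is the per-design median of normalised cluster binding-curve fits.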

[2] = tested on: MS2 coat protein; test: apparent KD of MS2 coat protein, switch OFF state (with FMN for OFF switches, without FMN for ON switches); designed switch direction (-1 OFF switch, 1 ON switch): -1; higher = weaker reporter binding; details: FMN input: 0 or 200 uM; Eterna round: R93 (includes R88 designs)
Method in brief: as §1

Row | Sequence | apparent KD of MS2 coat protein [1] | apparent KD of MS2 coat protein [2]
1 | AAAAAACAUGAGGAUCACCCAUGUAAGGAUAUGCUAAAAAACACGGAAAAACGUGAUAGCAGAAGGUACAAAAA [66%, Wbt, 31] | 22.6 nM | 33.4 nM
2 | AAAAAACAUGAGGAUCACCCAUGUCAGGAUAUCCGGUUAAAAAAAAAAAAAAGGCGUUGGAGAAGGGACAUUCC [Chica Displaced 9 - Jieux - Exclusion 1] | 25.7 nM | 33.4 nM
3 | AAAAAACAUGAGGAUCACCCAUGUCAGGAUAUCCUAAAGAAACUCGUAAAAAGAAAUAGGAGAAGGGACAAAAA [PK4] | 53.7 nM | 46.7 nM
4 | AAAAAACAUGAGGAUCACCCAUGUCAGGAUAUCUGGAGAAACGGAAAGAAAAAGAAACGGAGAAGGGACAUAAA [Starryjess mod] | 29.6 nM | 28.5 nM
5 | AAAAAACAUGAGGAUCACCCAUGUGAGGAUAUCCAAAACAAAAAAAAACAAAACAAAAGGAGAAGGCACAUAAA [Amethyst 54] | 58.8 nM | 43.1 nM
6 | AAAAAACAUGAGGAUCACCCAUGUGAGGAUAUCCAAAAGUCAAAGAAAAAGACGAAAAGGAGAAGGCACAAAAA [Banishment 2 - Jieux - Exclusion 1] | 44.2 nM | 49.1 nM
7 | AAAAAACAUGAGGAUCACCCAUGUGAGGAUAUCCAGAAGGGAAUAAAAUAACACGAAAGGAGAAGGCGCAAAAA [Ex 1 May 35] | 35.8 nM | 31.1 nM
8 | AAAAAACAUGAGGAUCACCCAUGUGAGGAUAUGCAAAAAAAAAAAAAAAAAUAAAAAAGCAGAAGGCACAAAAA [Sh'dynasty] | 30.6 nM | 33.2 nM
9 | AAAAAACAUGAGGAUCACCCAUGUGAGGAUAUUCAAAAAAAAAAAAAAAACACAAGAAGGAGAAGGCACAAAAA [Default title] | 29.6 nM | 73 nM
10 | AAAAACGGAGGAUAUGCAAAAAAAAAAAAAAAAAAAAAAAAACAUGAGGAUCACCCAUGUAGAAGGCCGAAAAA [Diamond] | 25.6 nM | 36.9 nM
11 | AAAAACGUAGGAUAUACAUGAAAAAAAAAAAAAAAAAAAAGACAUGAGGAUCACCCAUGUAGAAGGGCGAAAAA [water's exclusion 2] | 91.9 nM | 76.8 nM
12 | AAAAAGAAAGGAUAUACGAACAUGUCAAAAGACGUGAAGGGACAUGAGGAUCACCCAUGUAGAAGGUUCAAAAA [JL Half Open 22] | 35.8 nM | 17.1 nM
13 | AAAAAGCGAGGAUAUACAUAGCUAAGACGUGUGAGCGAAAAACAUGAGGAUCACCCAUGUAGAAGGCGCAAAAA [Exclusion2-03] | 18.2 nM | 16.9 nM
14 | AAAAAGGAAGGAUAUACGAACAUGUCAAAAGACGUGAAGGGACAUGAGGAUCACCCAUGUAGAAGGUCUAAAAA [JL Half Open 26] | 32.4 nM | 22.9 nM
15 | AAAAAGGCAGGAUAUGCAUACCCACGAAAAAAAACGCUGGGACAUGAGGAUCACCCAUGUAGAAGGGCCAAAAA [Dora Explored 11 - Jieux - Exclusion 2] | 54 nM | 28.2 nM
16 | AAAAAGGUAGGAUAUACGAAAAAAAAGGGUAGAAAAAAAACACAUGAGGAUCACCCAUGUAGAAGGACCAAAAA [Ex 2 sub 1] | 26.3 nM | 77.4 nM
17 | AAAAAGUAAGGAUAUGCGAAUAAAUAAGAAGAAGAAAGAAAGCAGAAGGUACAUGAGGAUCACCCAUGUAAAAA [Ex 4 Tesla 1] | 36.3 nM | 22.5 nM
18 | AAAAAGUCAGGAUAUAGCAAAGGUCACGAAAGUGACAAAGGCUAGAAGGGACAUGAGGAUCACCCAUGUAAAAA [Fiskers Exclusion 4 D2] | 53 nM | 38.8 nM
19 | AAAAAGUCAGGAUAUCGGAAAAAAAAAAAAAAAAAAAAAAACGAGAAGGGACAUGAGGAUCACCCAUGUAUGAC [Ex 4 May 7] | 56.9 nM | 243 nM
20 | AAAAAGUCAGGAUAUGCAGAUAAAAAAACGAAAAAAAAUCUGCAGAAGGGACAUGAGGAUCACCCAUGUAAAAA [Ex 4 May 5] | 48.5 nM | 40.4 nM

Row | Sequence | apparent KD of MS2 coat protein [1] | apparent KD of MS2 coat protein [2]
21 | AAAAAGUCAGGAUAUGCGAAGGCGUCUGAUAGACGAGGCUAGCAGAAGGGACAUGAGGAUCACCCAUGUGGAAG [Mat - Exclusion 4 - Eli mod - D89] | 81.3 nM | 121 nM
22 | AAAAAGUCAGGAUAUGUCAAAGGUCACGAAAGUGACAAAGGACAGAAGGGACAUGAGGAUCACCCAUGUGGAAA [Fiskers Exclusion 4D1 65% - Late G segment 1] | 82 nM | 115 nM
23 | AAAAAGUGAGGAUAUACGCUGUGGAGUAGACACAACCAGUCGUAGAAGGCACAUGAGGAUCACCCAUGUCCAAA [EX4 Malc#19] | 22 nM | 49.6 nM
24 | AAAAAGUGAGGAUAUGUCAAAAGUCACAAAAGUGACAAAAGACAGAAGGCACAUGAGGAUCACCCAUGUGAAAA [Mod of Eli - Late G + early G segment 3] | 26.8 nM | 38.8 nM
25 | AAAAAGUUAGGAUAUACAUGAGGAUCACCCAUGUACAUAUAUGGAGAAUAUAGUAGUAGUAGAAGGGACAAAAA [EX2 Malc#14] | 21 nM | 26.9 nM
26 | AAAAAUGCAGGAUAUACGUACAUGUCAAAAGACGUGAAGGGACAUGAGGAUCACCCAUGUAGAAGGGUAAAGAA [JL Neck Breaker 15] | 237 nM | 59.8 nM
27 | AAAAAUGGAGGAUAUACAUGAGGAUCACCCAUGUGUAACAAAACAAAACACAAAAAAAGUAGAAGGCCAAAAAA [Gilly Gone Silly 5 - Jieux - Exclusion 3] | 19.2 nM | 20.4 nM
28 | AAAAAUUGAGGAUAUACGAACAUGUCGAAAGACGUGAAGGGACAUGAGGAUCACCCAUGUAGAAGGCGAAAAAA [Mat - Exclusion 2 - JL mod - D68] | 33.7 nM | 20.7 nM
29 | AAAACGGUAGGAUAUACGAAAAAAAAGGGAGAACAAAAGGGACAUGAGGAUCACCCAUGUAGAAGGACCAAAAA [Diamond 89] | 40.6 nM | 84.7 nM
30 | AAAACGGUAGGAUAUACGAUUGGGAACUAGACCGAGAAACCACAUGAGGAUCACCCAUGUAGAAGGGCCAAAAA [Ex2 Malc#13] | 31.1 nM | 36.2 nM
31 | AAAAGACAUGAGGAUCACCCAUGUGAGGAUAUGCGAAAAAAAAAAAUAAAAAAAAAAAGUAGAAGGCACACCAA [Mat - Exclusion 1 - Eli mod - D56] | 177 nM | 248 nM
32 | AAAAGACAUGAGGAUCACCCAUGUUAGGAUAUGGAAAAACAAAAAAAAAAAAAAAAAACCAGAAGGAGCGAGGG [another 1 four] | 190 nM | 132 nM
33 | AAAAGCACAGGAUAUACAUAAUUAUGACGAAAGUCAUAAAAACAUGAGGAUCACCCAUGUAGAAGGGUGCAAAA [Mod of Meechl's... 64% 1] | 118 nM | 37.8 nM
34 | AAAAGCACAGGAUAUACGGGAUUAUGACGAAAGUCAUAAAAACAUGAGGAUCACCCAUGUAGAAGGGUGCAAAA [Mod of Meechl's... 64% 2] | 191 nM | 248 nM
35 | AAAAUACAUGAGGAUCACCCAUGUGAGGAUAUGCUAUGGAAAAUAAAAAUAAAACAUAGCAGAAGGCACAAAAA [Denovo 13] | 37 nM | 56.7 nM
36 | AAAAUGAAAGGAUAUACAUGAGGAUCACCCAUGUUCCAGAACAGGAGUACAAGCGAGUGUAGAAGGUUCAGCAA [Ercesois] | 22.3 nM | 42.7 nM
37 | AAACCACAUGAGGAUCACCCAUGUCAGGAUAUGAACGAAAAUAAAUAAAAAUAAAAGUUCAGAAGGGACGAAAA [66%, Wbt, 15] | 39.2 nM | 37.2 nM
38 | AAACGUUGAGGAUAUACAGAAGGGUAUAAAUCAUAAAAAACACAUGAGGAUCACCCAUGUAGAAGGCAACGAAA | 97.9 nM | 46.8 nM
39 | AAACUACUAGGAUAUGCAGAAAGGGUGUAUCCUUAAACUCCACAUGAGGAUCACCCAUGUAGAAGGAGUAAUCG [Dilaquis] | 32.4 nM | 46.4 nM
40 | AAAGGACGAGGAUAUACAUGAGGAUCACCCAUGUAAAGGGCAUAAUAAAAGAACUUAUGUAGAAGGCGUCCAAA [69%, Moding Meechl, 6] | 79.1 nM | 15.6 nM
